Here are results for 62 variants from the Human Domainome abundance scans (Beltran et al. 2025).

± gives the uncertainty stated by the source.

The labels stand for the following.
B1: Activity-dependent neuroprotector homeobox protein, residues 770 to 810; numbered along this chain, Q9H2P0 (parent)
chain: FLTKYFNKQPYPTRREIEKLAASLWLWKSDIASHFSNKRKK

The variants in the data set derive from B1. Briefly: abundance fitness (aPCA) (normalised: wild type 0, dead -1); higher = more abundant; growth selection in yeast, the domain comes from the species named. To be noted: Homo sapiens.
As to FLTKYFNKQPYPTRREIEKLAASLWLWKSDIASHFSNIRKK [K38I], the abundance fitness was -0.182 ± 0.13. In the case of FLTKYFNKQPYPTRREIEKLAASDWLWKSDIASHFSNKRKK [L24D] it was -0.033 ± 0.19. In the case of FLTKYFNKQPYPTRREIEKLAASWWLWKSDIASHFSNKRKK [L24W] it was -0.121 ± 0.093; in that of FLTKYFNKQPYPTRREIEKLAASLWLWKSEIASHFSNKRKK [D30E], -0.124 ± 0.1; in that of FLTKYFNKQPYPTRREIEKLAASLWLWKSQIASHFSNKRKK [D30Q], 0 ± 0.12. The value for FLTKYFNKQPYPTRREIEKLAASLWLWKSMIASHFSNKRKK [D30M] was -0.054 ± 0.1; that for FLTKYFNKQPYPTRREIEKLAASLWLWKSTIASHFSNKRKK [D30T] was -0.182 ± 0.089. As to FLTKYFNKQPYPTRREIEKLAASLWLWKSPIASHFSNKRKK [D30P], the abundance fitness is 0.056 ± 0.064. Regarding FLTKYFNKQPYPTRREIEKLAASLWLWKSVIASHFSNKRKK [D30V], the abundance fitness was -0.317 ± 0.11. The value for FLTKYFNKQPYPTRREIEKLAASLWLWKSDIASHFSNKRKH [K41H] was -0.214 ± 0.063; that for FLTKYFNKCPYPTRREIEKLAASLWLWKSDIASHFSNKRKK [Q9C] was -0.014 ± 0.063. The value for FLTKYFNKQPYPTRREIEKLAASLWWWKSDIASHFSNKRKK [L26W] was 0.044 ± 0.075. In the case of FLTKYFNKQPYPTRREIEKLAASLWPWKSDIASHFSNKRKK [L26P] it was 0.343 ± 0.058; in that of FLTKYFNKQPYPTRREIEKLAASLWSWKSDIASHFSNKRKK [L26S], 0.033 ± 0.051. For the variant FLTKYFNKQPYPTRREIEKLAASLWIWKSDIASHFSNKRKK [L26I], the abundance fitness is -0.134 ± 0.063. In the case of FLTKYFNKQPYPTRREIEKLAASLWKWKSDIASHFSNKRKK [L26K] it was 0.341 ± 0.063; in that of FLTKYFNKQPYPTRREITKLAASLWLWKSDIASHFSNKRKK [E18T], -0.176 ± 0.08. The value for FLTKYFNKQPYPTRREICKLAASLWLWKSDIASHFSNKRKK [E18C] was -0.232 ± 0.069. In the case of FLTKYENKQPYPTRREIEKLAASLWLWKSDIASHFSNKRKK [F6E] it was -0.821 ± 0.18; in that of FLTKYANKQPYPTRREIEKLAASLWLWKSDIASHFSNKRKK [F6A], -0.235 ± 0.05.

With FLTKYMNKQPYPTRREIEKLAASLWLWKSDIASHFSNKRKK [F6M], the abundance fitness is -0.209 ± 0.067. For the variant FLTKYFNKQPYPARREIEKLAASLWLWKSDIASHFSNKRKK [T13A], the abundance fitness came to 0.016 ± 0.069. The value for FLTKYFNKQPYPKRREIEKLAASLWLWKSDIASHFSNKRKK [T13K] was -0.046 ± 0.092; that for FLTKYFNKQPYPTRREIEKYAASLWLWKSDIASHFSNKRKK [L20Y] was 0.064 ± 0.12. The value for FLTKYFNKQPYPTRREIEKQAASLWLWKSDIASHFSNKRKK [L20Q] was -0.462 ± 0.096; that for FLTKYFNKQPYPTRREIEKTAASLWLWKSDIASHFSNKRKK [L20T] was -0.106 ± 0.076. The value for FLTKYFNKQPYPTRREIEKLAASLWLWKSDIASHMSNKRKK [F35M] was 0.004 ± 0.061; that for FLTKYFNKQPYPTRREIEKLAASLWLWKSDIASHESNKRKK [F35E] was -0.068 ± 0.066. For the variant FLTKYFNKQPYPTRREIEKLAASLWLWKSDIASHLSNKRKK [F35L], the abundance fitness is -0.023 ± 0.044. The value for FLTKYFNKQPYPTKREIEKLAASLWLWKSDIASHFSNKRKK [R14K] was -0.048 ± 0.27; that for FLTKYFNKQPYPTPREIEKLAASLWLWKSDIASHFSNKRKK [R14P] was -0.391 ± 0.14; that for FLTKYFNKQPYPTYREIEKLAASLWLWKSDIASHFSNKRKK [R14Y] was -0.13 ± 0.25.

As for FLTKYFNKQPYPTSREIEKLAASLWLWKSDIASHFSNKRKK [R14S], the abundance fitness was -0.387 ± 0.072.

As for FLTKYFNKQPYPTRREIEKLAASLWLWKSDIASHFSNKWKK [R39W], the abundance fitness amounted to 0.009 ± 0.087. The value for FLTKYFNKQPYPTRREIEKLAASLWLWKSDIASHFSNKAKK [R39A] was -0.076 ± 0.052; that for FLTKYFNKQPYPTRREIEKLAASLWLWKSDIASHFSNKQKK [R39Q] was -0.195 ± 0.071.

Consider FLTKYFNKQPYPTRREIEKLAASLWLWKSDIASHFSNKGKK [R39G], for which the abundance fitness was -0.195 ± 0.08. In the case of FLTKYFNKQPYPTRREIEKLAASLWLWKSDIASHFSNKIKK [R39I] it was -0.035 ± 0.076; in that of FLTKYFNKQPYPTRREIEKLAASLWLWKSDIASHFSNKPKK [R39P], -0.232 ± 0.053; in that of FLTKYFNKQPYPTRREIEKLAASLWLAKSDIASHFSNKRKK [W27A], -0.084 ± 0.052. In the case of FLTKYFNKQPYPTRREIEKLAASLWLHKSDIASHFSNKRKK [W27H] it was -0.137 ± 0.081; in that of FLTKYFNKQPYPTRREIEKLAASLTLWKSDIASHFSNKRKK [W25T], 0.141 ± 0.054. In the case of FLTKYFNKQPYPTRREIEKLAASLKLWKSDIASHFSNKRKK [W25K] it was 0.361 ± 0.084; in that of FLTKYFNKQPYPTRREIEKLAASLWLWKSDIASHFANKRKK [S36A], -0.049 ± 0.057.

In the case of FLTKYFNKQPYPTRREIEKLAASLWLWKSDIASHFKNKRKK [S36K], the abundance fitness worked out at 0.051 ± 0.08. The value for FLTKYFNKQPYPTRREIEKLAASLWLWKSDIASHFGNKRKK [S36G] was 0.083 ± 0.055; that for FLTKYFNKQPYPTRREIEKLAASLWLWKSDIASHFWNKRKK [S36W] was -0.177 ± 0.14. Turning to FLTKYFNKQPYPTRREIEKLAASLWLWKSDIASHFVNKRKK [S36V], the abundance fitness was -0.262 ± 0.072. FLTKYFNKQPYPTRREIEKLAAELWLWKSDIASHFSNKRKK [S23E]: the abundance fitness was -0.116 ± 0.13. Regarding FLTKYFNKQPYPTRREIEKLAAVLWLWKSDIASHFSNKRKK [S23V], the abundance fitness is -0.101 ± 0.085.

As to FLTKYFNKQPYPTRREIEKLAAILWLWKSDIASHFSNKRKK [S23I], the abundance fitness is -0.432 ± 0.094. In the case of FLTKYFNKQPYPTRREIEKLAAALWLWKSDIASHFSNKRKK [S23A] it was -0.177 ± 0.079.

FLTKYFNKQPYPTRREIEKLAASLWLWKSDIASHFSKKRKK [N37K]: the abundance fitness was 0.131 ± 0.11.

For the variant FLTKYFNKQPYPTRREIEKLAASLWLWKSDIASHFSSKRKK [N37S], the abundance fitness was -0.019 ± 0.049. In the case of FLTKYFNKQPYPTRREIEKLAASLWLWKSDIASHFSWKRKK [N37W] it was 0.023 ± 0.067.

On to FLTKYFTKQPYPTRREIEKLAASLWLWKSDIASHFSNKRKK [N7T], for which the abundance fitness is -0.215 ± 0.053. The value for FLTKYFAKQPYPTRREIEKLAASLWLWKSDIASHFSNKRKK [N7A] was -0.145 ± 0.053; that for FLTKYFMKQPYPTRREIEKLAASLWLWKSDIASHFSNKRKK [N7M] was -0.76 ± 0.12; that for FLTKYFNKQPYVTRREIEKLAASLWLWKSDIASHFSNKRKK [P12V] was -0.584 ± 0.088. The value for FLTKYFNKQPYWTRREIEKLAASLWLWKSDIASHFSNKRKK [P12W] was -0.235 ± 0.087; that for FLTKYFNKQPYPTRREIEDLAASLWLWKSDIASHFSNKRKK [K19D] was -0.099 ± 0.075.

As for FLTKYFNKQPYPTRREIEHLAASLWLWKSDIASHFSNKRKK [K19H], the abundance fitness is -0.413 ± 0.17.
